Source: article PMC6650482, “Tyrosine 51 residue of the syndecan-2 extracellular domain is involved in the interaction with and activation of pro-matrix metalloproteinase-7” (Scientific Reports, 2019)

How the values were obtained:
MMP-7 in HT-29 cells [1] = details: cited from earlier work
Excerpt: Since syndecan-2 is known to mediate the activation of pro-MMP-7, we investigated how interrupting their interaction could affect syndecan-2-mediated MMP-7 activation. Firstly, we investigated whether the expression of syndecan-2 affects that of MMP-7.

MMP-7 in HT-29 cells [2] = test: MMP-7 expression on IL-1α treatment; assay type: cell-based, human; details: 1 ng/ml IL-1α, syndecan-2- and Y51A-expressing HT-29 cells
Experimental: Figure 6 Tyrosine 51 of the syndecan-2 extracellular domain is involved in regulating pro-MMP-7 activation. (A) HT-29 cells were transiently transfected with 1 µg of vectors encoding SDC2 or the interaction-defective syndecan-2 mutant, Y51A, and the mRNA expression levels of SDC2 and MMP-7 were evaluated by RT-PCR (top). Conditioned media (CM) were collected and proteolytic activity was measured using quenched fluorescence peptide cleavage assay. The relative activity was normalized versus the fluorescence of a vector control (bottom). Data are shown as mean ± S.D. (n = 3), **p < 0.01 versus VEC or SDC2. (B) HT-29 cells were stably transfected with vectors encoding SDC2 or Y51A. The expression levels of the target mRNAs were analyzed by RT-PCR and quantitative real-time PCR (q-PCR) of three independent experiments was performed and normalized to GAPDH expression. Data are shown as mean ± S.D. (n = 3), *p < 0.05, **p < 0.01 versus VEC or SDC2 (left). […] CM were collected and proteolytic activity was measured using quenched fluorescence peptide cleavage assay (right bottom). […] The mRNA expression levels of SDC2 and MMP-7 were evaluated with RT-PCR (left top). CM were collected from the indicated cells and immunoblotted with an anti-MMP-7 antibody (left bottom) or subjected to quenched fluorescence peptide cleavage activity assay (right). […]

B1: IL-1α: IL-1α was purchased from R&D Systems (protein, UniProt P01583 113-271, looked up)
Interleukin-1 alpha: SAPFSFLSNVKYNFMRIIKYEFILNDALNQSIIRANDQYLTAAALHNLDEAVKFDMGAYKSSKDDAKITVILRISKTQLYVTAQDEDQPVLLKEMPEIPKTITGSETNLLFFWETHGTKNYFTSVAHPNLFIATKQDYWVCLAGGPPSITDFQILENQA
Question: Which “MMP-7 expression in colon cancer cells” value (MMP-7 in HT-29 cells [1]) does the source give for B1 here?
Answer: known to induce MMP-7 expression

Question: What about the MMP-7 expression (MMP-7 in HT-29 cells [2]) of the same molecule?
Answer: upregulation of MMP-7
